US20220227863A1

Target: human ILT3 on cells (human) (UniProt Q8NHJ6)
Assay: flow cytometry on THP1 cells, enumeration of the ILT3 antigen density with clone ZM4.1; unit not given

Sequence of human ILT3 on cells (human) (Q8NHJ6 22-448 D223G/Q414R): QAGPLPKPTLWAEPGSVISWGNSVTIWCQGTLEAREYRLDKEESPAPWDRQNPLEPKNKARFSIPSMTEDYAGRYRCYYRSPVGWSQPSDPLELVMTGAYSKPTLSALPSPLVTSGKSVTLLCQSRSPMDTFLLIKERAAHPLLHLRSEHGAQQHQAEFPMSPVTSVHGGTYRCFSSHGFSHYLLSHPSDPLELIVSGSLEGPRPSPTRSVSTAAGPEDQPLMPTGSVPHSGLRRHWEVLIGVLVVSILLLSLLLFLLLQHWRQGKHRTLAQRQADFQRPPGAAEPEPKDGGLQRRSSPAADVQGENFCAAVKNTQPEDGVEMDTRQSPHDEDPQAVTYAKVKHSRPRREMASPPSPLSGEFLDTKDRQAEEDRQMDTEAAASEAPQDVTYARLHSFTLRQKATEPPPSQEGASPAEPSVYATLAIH

- Ag density: 147000
Substance: mouse anti-ILT3 monoclonal antibody, clone ZM4.1
